Our source for the Kd values is patent publication US20190352429A1 (published 2019).

Residue numbers refer to the chain shown, from its start. Names may count otherwise.

Assay [1] deals with T1, cMET extracellular domain (human, UniProt P08581 25-932).
T1 construct: extracellular domain; also called human c-MET
The assay is described as follows: Octet BLI, protein A biosensors, extracellular domain as antigen. The protocol: (§1) The affinity of BxM wildtype and MaB40 was analysed using an Octet system with biosensors coated with protein A. As antigens, the extracellular domains of cMET and EGFR were used. Three different concentrations of antibody were tested to determine the affinity.

The target in assay [2] is T2, EGFR extracellular domain (human, UniProt P00533 25-645).
T2 construct: extracellular domain; also called human EGFR; epidermal growth factor receptor
Described as above. The protocol:
as §1

B1: BxM wt (B10v5 x hu225M SEED bispecific IgG without interface mutations) (bispecific antibody)
heavy 1: not shown
light 1: EPVLTQPPSVSVAPGETATIPCGGDSLGSKIVHWYQQRPGQAPLLVVYDDAARPSGIPERFSGSKSGTTATLTISSVEAGDEADYFCQVYDYHSDVEVFGGGTKLTVLGQPKAAPSVTLFPPSSEELQANKATLVCLISDFYPGAVTVAWKADSSPVKAGVETTTPSKQSNNKYAASSYLSLTPEQWKSHKSYSCQVTHEGSTVEKTVAPTECS
heavy 2: EVQLVQSGAEVKKPGASVKVSCKASGFSLTNYGVHWMRQAPGQGLEWIGVIWSGGNTDYNTPFTSRVTITSDKSTSTAYMELSSLRSEDTAVYYCARALTYYDYEFAYWGQGTLVTVSSASTKGPSVFPLAPSSKSTSGGTAALGCLVKDYFPEPVTVSWNSGALTSGVHTFPAVLQSSGLYSLSSVVTVPSSSLGTQTYICNVNHKPSNTKVDKKVEPKSCDKTHTCPPCPAPELLGGPSVFLFPPKPKDTLMISRTPEVTCVVVDVSHEDPEVKFNWYVDGVEVHNAKTKPREEQYNSTYRVVSVLTVLHQDWLNGKEYKCKVSNKALPAPIEKTISKAKGQPREPQVYTLPPPSEELALNELVTLTCLVKGFYPSDIAVEWLQGSQELPREKYLTWAPVLDSDGSFFLYSILRVAAEDWKKGDTFSCSVMHEALHNHYTQKSLDRSPGK
light 2: DIQMTQSPSSLSASVGDRVTITCRASQSIGTNIHWYQQKPGKAPKLLIKYASESISGVPSRFSGSGYGTDFTLTISSLQPEDVATYYCQQNYNWPTTFGQGTKVEIKRTVAAPSVFIFPPSDEQLKSGTASVVCLLNNFYPREAKVQWKVDNALQSGNSQESVTEQDSKDSTYSLSSTLTLSKADYEKHKVYACEVTHQGLSSPVTKSFNRGEC
notes: By LC-ESI-MS the preparation held only 76% of the correctly paired form (12% + 12% light chain mispaired variants); also called BxM wildtype
Usually Kd stands for the free concentration of one partner at which half of the binding sites on the other are occupied at equilibrium, for simple one-to-one binding. A lower Kd goes with higher affinity. B1: the Kd came to 0.35 nM in assay [1] and 5.3 nM in assay [2].

B2: BxM MaB40 (B10v5 x hu225M SEED bispecific IgG with K26D in CH1 and T18R in CL of hu225M) (bispecific antibody)
heavy 1: not shown
light 1: B1 light 1
heavy 2: B1 heavy 2 with K149D
light 2: B1 light 2 with T129R
notes: Only the correctly paired form was detected by LC-ESI-MS; also called mutant BxM MaB40
B2: the Kd in assay [1] was determined as 0.42 nM; in assay [2], 2.9 nM.
